Starred links: 1 amine or outer side, 2 acyl side, 3 side chain; linkers in the order of their positions; H or OH if unused. Positions of bridges follow the written chain, without caps; N, C: chain ends. *: point of attachment. C20 diacid = O=C(O)CCCCCCCCCCCCCCCCCCC(=O)*; 19‑carboxyheptadecanoyl = not defined here; C18 diacid = O=C(O)CCCCCCCCCCCCCCCCC(=O)*; γGlu = O=C(O)[C@H](CCC(=O)[*:2])N[*:1]; AEEA = NCCOCCOCC(=O)O
T1: human calcitonin (a) receptor (human, UniProt P30988 25-474)
T1 sequence (looked up): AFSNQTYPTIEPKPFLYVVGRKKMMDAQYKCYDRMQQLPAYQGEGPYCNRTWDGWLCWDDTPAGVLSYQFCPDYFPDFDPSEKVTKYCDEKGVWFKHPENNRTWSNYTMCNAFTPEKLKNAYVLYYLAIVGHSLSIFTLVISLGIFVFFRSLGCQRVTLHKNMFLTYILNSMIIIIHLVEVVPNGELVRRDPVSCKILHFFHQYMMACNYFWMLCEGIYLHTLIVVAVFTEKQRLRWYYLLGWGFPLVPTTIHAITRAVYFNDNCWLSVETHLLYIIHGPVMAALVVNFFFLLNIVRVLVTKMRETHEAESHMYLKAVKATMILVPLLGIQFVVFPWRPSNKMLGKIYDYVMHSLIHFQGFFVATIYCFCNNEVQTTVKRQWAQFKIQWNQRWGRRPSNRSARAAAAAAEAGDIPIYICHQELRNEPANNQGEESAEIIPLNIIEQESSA

T2: human amylin 3(a) receptor (human calcitonin receptor + RAMP-3) (human, UniProt P30988 25-474; O60896 24-148)
T2 sequence (looked up) 1: T1 sequence (looked up)
T2 sequence (looked up) 2: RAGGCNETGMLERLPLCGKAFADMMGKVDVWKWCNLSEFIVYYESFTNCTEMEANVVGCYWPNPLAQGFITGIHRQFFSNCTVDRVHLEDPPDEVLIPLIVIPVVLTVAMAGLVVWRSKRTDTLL

B1: N-alpha-[2-(2-{2-[2-(2-{2-[(S)-4-Carboxy-4-(19-carboxyheptadecanoylamino)butyrylamino]ethoxy}ethoxy)acetylamino]ethoxy}ethoxy)acetyl]-[des1,Glu14,His17]-pramlin … (peptide)
peptide: {19‑carboxyheptadecanoyl-γGlu-AEEA-AEEA}-CNTATCATQRLAEFLHHSSNNFGPILPPTNVGSNTY-NH2
modifications: disulfide 1-6; reading uncertain; also: printed as N-alpha-[2-(2-{2-[2-(2-{2-[(S)-4-Carboxy-4-(19-carboxyheptadecanoylamino)butyrylamino]ethoxy}ethoxy)acetylamino]ethoxy}ethoxy)acetyl]-[des1,Glu14,His17]-pramlintide
B2: N-alpha-[(S)-4-Carboxy-4-(17-carboxyheptadecanoylamino)butyryl]-His-His-[His1,Glu14,His17]-pramlintide (peptide)
peptide: {C18 diacid-γGlu}-HHHCNTATCATQRLAEFLHHSSNNFGPILPPTNVGSNTY-NH2
modifications: disulfide 4-9
SMILES: CC[C@H](C)[C@H](NC(=O)[C@@H]1CCCN1C(=O)CNC(=O)[C@H](Cc1ccccc1)NC(=O)[C@H](CC(N)=O)NC(=O)[C@H](CC(N)=O)NC(=O)[C@H](CO)NC(=O)[C@H](CO)NC(=O)[C@H](Cc1c[nH]cn1)NC(=O)[C@H](Cc1c[nH]cn1)NC(=O)[C@H](CC(C)C)NC(=O)[C@H](Cc1ccccc1)NC(=O)[C@H](CCC(=O)O)NC(=O)[C@H](C)NC(=O)[C@H](CC(C)C)NC(=O)[C@H](CCCNC(=N)N)NC(=O)[C@H](CCC(N)=O)NC(=O)[C@@H](NC(=O)[C@H](C)NC(=O)[C@@H]1CSSC[C@H](NC(=O)[C@H](Cc2c[nH]cn2)NC(=O)[C@H](Cc2c[nH]cn2)NC(=O)[C@H](Cc2c[nH]cn2)NC(=O)CC[C@H](NC(=O)CCCCCCCCCCCCCCCCC(=O)O)C(=O)O)C(=O)N[C@@H](CC(N)=O)C(=O)N[C@@H]([C@@H](C)O)C(=O)N[C@@H](C)C(=O)N[C@@H]([C@@H](C)O)C(=O)N1)[C@@H](C)O)C(=O)N[C@@H](CC(C)C)C(=O)N1CCC[C@H]1C(=O)N1CCC[C@H]1C(=O)N[C@H](C(=O)N[C@@H](CC(N)=O)C(=O)N[C@H](C(=O)NCC(=O)N[C@@H](CO)C(=O)N[C@@H](CC(N)=O)C(=O)N[C@H](C(=O)N[C@@H](Cc1ccc(O)cc1)C(N)=O)[C@@H](C)O)C(C)C)[C@@H](C)O
B3: N-alpha-{(S)-4-Carboxy-4-[(S)-4-Carboxy-4-(17-carboxyheptadecanoylamino)butyrylamino]butyryl}-[des1,Glu14,His17]-pramlintide (peptide)
peptide: {C18 diacid-γGlu-γGlu}-CNTATCATQRLAEFLHHSSNNFGPILPPTNVGSNTY-NH2
modifications: disulfide 1-6
SMILES: CC[C@H](C)[C@H](NC(=O)[C@@H]1CCCN1C(=O)CNC(=O)[C@H](Cc1ccccc1)NC(=O)[C@H](CC(N)=O)NC(=O)[C@H](CC(N)=O)NC(=O)[C@H](CO)NC(=O)[C@H](CO)NC(=O)[C@H](Cc1c[nH]cn1)NC(=O)[C@H](Cc1c[nH]cn1)NC(=O)[C@H](CC(C)C)NC(=O)[C@H](Cc1ccccc1)NC(=O)[C@H](CCC(=O)O)NC(=O)[C@H](C)NC(=O)[C@H](CC(C)C)NC(=O)[C@H](CCCNC(=N)N)NC(=O)[C@H](CCC(N)=O)NC(=O)[C@@H](NC(=O)[C@H](C)NC(=O)[C@@H]1CSSC[C@H](NC(=O)CC[C@H](NC(=O)CC[C@H](NC(=O)CCCCCCCCCCCCCCCCC(=O)O)C(=O)O)C(=O)O)C(=O)N[C@@H](CC(N)=O)C(=O)N[C@@H]([C@@H](C)O)C(=O)N[C@@H](C)C(=O)N[C@@H]([C@@H](C)O)C(=O)N1)[C@@H](C)O)C(=O)N[C@@H](CC(C)C)C(=O)N1CCC[C@H]1C(=O)N1CCC[C@H]1C(=O)N[C@H](C(=O)N[C@@H](CC(N)=O)C(=O)N[C@H](C(=O)NCC(=O)N[C@@H](CO)C(=O)N[C@@H](CC(N)=O)C(=O)N[C@H](C(=O)N[C@@H](Cc1ccc(O)cc1)C(N)=O)[C@@H](C)O)C(C)C)[C@@H](C)O
B4: N-alpha-[(S)-4-Carboxy-4-(19-carboxynonadecanoylamino)butyryl]-Glu-Glu-[Glu14,His17]-pramlintide (peptide)
peptide: {C20 diacid-γGlu}-EEKCNTATCATQRLAEFLHHSSNNFGPILPPTNVGSNTY-NH2
modifications: disulfide 4-9
SMILES: CC[C@H](C)[C@H](NC(=O)[C@@H]1CCCN1C(=O)CNC(=O)[C@H](Cc1ccccc1)NC(=O)[C@H](CC(N)=O)NC(=O)[C@H](CC(N)=O)NC(=O)[C@H](CO)NC(=O)[C@H](CO)NC(=O)[C@H](Cc1c[nH]cn1)NC(=O)[C@H](Cc1c[nH]cn1)NC(=O)[C@H](CC(C)C)NC(=O)[C@H](Cc1ccccc1)NC(=O)[C@H](CCC(=O)O)NC(=O)[C@H](C)NC(=O)[C@H](CC(C)C)NC(=O)[C@H](CCCNC(=N)N)NC(=O)[C@H](CCC(N)=O)NC(=O)[C@@H](NC(=O)[C@H](C)NC(=O)[C@@H]1CSSC[C@H](NC(=O)[C@H](CCCCN)NC(=O)[C@H](CCC(=O)O)NC(=O)[C@H](CCC(=O)O)NC(=O)CC[C@H](NC(=O)CCCCCCCCCCCCCCCCCCC(=O)O)C(=O)O)C(=O)N[C@@H](CC(N)=O)C(=O)N[C@@H]([C@@H](C)O)C(=O)N[C@@H](C)C(=O)N[C@@H]([C@@H](C)O)C(=O)N1)[C@@H](C)O)C(=O)N[C@@H](CC(C)C)C(=O)N1CCC[C@H]1C(=O)N1CCC[C@H]1C(=O)N[C@H](C(=O)N[C@@H](CC(N)=O)C(=O)N[C@H](C(=O)NCC(=O)N[C@@H](CO)C(=O)N[C@@H](CC(N)=O)C(=O)N[C@H](C(=O)N[C@@H](Cc1ccc(O)cc1)C(N)=O)[C@@H](C)O)C(C)C)[C@@H](C)O
B5: N-alpha-[(S)-4-Carboxy-4-(19-carboxynonadecanoylamino)butyryl]-Glu-[His1,Glu14,His17]-pramlintide (peptide)
peptide: {C20 diacid-γGlu}-EHCNTATCATQRLAEFLHHSSNNFGPILPPTNVGSNTY-NH2
modifications: disulfide 3-8
SMILES: CC[C@H](C)[C@H](NC(=O)[C@@H]1CCCN1C(=O)CNC(=O)[C@H](Cc1ccccc1)NC(=O)[C@H](CC(N)=O)NC(=O)[C@H](CC(N)=O)NC(=O)[C@H](CO)NC(=O)[C@H](CO)NC(=O)[C@H](Cc1c[nH]cn1)NC(=O)[C@H](Cc1c[nH]cn1)NC(=O)[C@H](CC(C)C)NC(=O)[C@H](Cc1ccccc1)NC(=O)[C@H](CCC(=O)O)NC(=O)[C@H](C)NC(=O)[C@H](CC(C)C)NC(=O)[C@H](CCCNC(=N)N)NC(=O)[C@H](CCC(N)=O)NC(=O)[C@@H](NC(=O)[C@H](C)NC(=O)[C@@H]1CSSC[C@H](NC(=O)[C@H](Cc2c[nH]cn2)NC(=O)[C@H](CCC(=O)O)NC(=O)CC[C@H](NC(=O)CCCCCCCCCCCCCCCCCCC(=O)O)C(=O)O)C(=O)N[C@@H](CC(N)=O)C(=O)N[C@@H]([C@@H](C)O)C(=O)N[C@@H](C)C(=O)N[C@@H]([C@@H](C)O)C(=O)N1)[C@@H](C)O)C(=O)N[C@@H](CC(C)C)C(=O)N1CCC[C@H]1C(=O)N1CCC[C@H]1C(=O)N[C@H](C(=O)N[C@@H](CC(N)=O)C(=O)N[C@H](C(=O)NCC(=O)N[C@@H](CO)C(=O)N[C@@H](CC(N)=O)C(=O)N[C@H](C(=O)N[C@@H](Cc1ccc(O)cc1)C(N)=O)[C@@H](C)O)C(C)C)[C@@H](C)O
B6: N-alpha-[(S)-4-Carboxy-4-(17-carboxyheptadecanoylamino)butyryl]-His-[His1,Glu14,His17]-pramlintide (peptide)
peptide: {C18 diacid-γGlu}-HHCNTATCATQRLAEFLHHSSNNFGPILPPTNVGSNTY-NH2
modifications: disulfide 3-8
SMILES: CC[C@H](C)[C@H](NC(=O)[C@@H]1CCCN1C(=O)CNC(=O)[C@H](Cc1ccccc1)NC(=O)[C@H](CC(N)=O)NC(=O)[C@H](CC(N)=O)NC(=O)[C@H](CO)NC(=O)[C@H](CO)NC(=O)[C@H](Cc1c[nH]cn1)NC(=O)[C@H](Cc1c[nH]cn1)NC(=O)[C@H](CC(C)C)NC(=O)[C@H](Cc1ccccc1)NC(=O)[C@H](CCC(=O)O)NC(=O)[C@H](C)NC(=O)[C@H](CC(C)C)NC(=O)[C@H](CCCNC(=N)N)NC(=O)[C@H](CCC(N)=O)NC(=O)[C@@H](NC(=O)[C@H](C)NC(=O)[C@@H]1CSSC[C@H](NC(=O)[C@H](Cc2c[nH]cn2)NC(=O)[C@H](Cc2c[nH]cn2)NC(=O)CC[C@H](NC(=O)CCCCCCCCCCCCCCCCC(=O)O)C(=O)O)C(=O)N[C@@H](CC(N)=O)C(=O)N[C@@H]([C@@H](C)O)C(=O)N[C@@H](C)C(=O)N[C@@H]([C@@H](C)O)C(=O)N1)[C@@H](C)O)C(=O)N[C@@H](CC(C)C)C(=O)N1CCC[C@H]1C(=O)N1CCC[C@H]1C(=O)N[C@H](C(=O)N[C@@H](CC(N)=O)C(=O)N[C@H](C(=O)NCC(=O)N[C@@H](CO)C(=O)N[C@@H](CC(N)=O)C(=O)N[C@H](C(=O)N[C@@H](Cc1ccc(O)cc1)C(N)=O)[C@@H](C)O)C(C)C)[C@@H](C)O

These binders were tested against T1, human calcitonin (a) receptor (assay: cell-based or functional assay).

With B1 as the binder, how does the “CTa receptor human EC50” value read?
The value was 0.672 nM.

How did the “CTa receptor human EC50” value turn out when B2 was run?
Its value is 0.265 nM.

For B3, which “CTa receptor human EC50” value is on record?
The value was 0.527 nM.

For B4, which “CTa receptor human EC50” value is on record?
The value was 0.798 nM.

With B5 as the binder, how does the “CTa receptor human EC50” value read?
Its value is 0.439 nM.

How did the “CTa receptor human EC50” value turn out when B6 was run?
Its value is 0.258 nM.

The binders below were run against T2, human amylin 3(a) receptor (human …) (assay: cell-based or functional assay).

How did the “Amylin receptor human EC50” value turn out when B1 was run?
Its value is 0.334 nM.

With B2 as the binder, how does the “Amylin receptor human EC50” value read?
The value was 0.0624 nM.

For B3, which “Amylin receptor human EC50” value is on record?
Its value is 0.151 nM.

B4 was tested. Which “Amylin receptor human EC50” value did it give?
Its value is 0.402 nM.

How did the “Amylin receptor human EC50” value turn out when B5 was run?
The value was 0.248 nM.

How did the “Amylin receptor human EC50” value turn out when B6 was run?
The value was 0.059 nM.

From US20130005646A1 (Novo Nordisk, published 2013)
